The numbers were not newly measured in publication PMC4760235, which cites them from elsewhere.

By Kd is commonly meant the free concentration of one partner at which half of the binding sites on the other are occupied at equilibrium, for simple one-to-one binding.

The data set deals with CD161 (Homo sapiens) (UniProt Q12918).
Sequence of UniProt Q12918 (Q12918 whole entry): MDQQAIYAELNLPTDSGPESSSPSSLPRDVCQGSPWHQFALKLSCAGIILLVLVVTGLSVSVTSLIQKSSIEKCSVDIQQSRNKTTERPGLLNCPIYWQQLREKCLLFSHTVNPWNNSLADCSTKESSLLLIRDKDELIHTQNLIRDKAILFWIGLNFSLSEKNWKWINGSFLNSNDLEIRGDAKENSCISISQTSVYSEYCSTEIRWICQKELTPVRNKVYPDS

For the substance LLT1 (from UniProt Q9UHP7), the Kd is 48 µM.
